Residue numbers refer to the chain shown, from its start.
B1: SHP2 N-SH2, Q06124 (protein)
chain: WFHPNITGVEAENLLLTRGVDGSFLARPSKSNPGDFTLSVRRNGAVTHIKVQNTGDYYDLYGGEKFATLAELVQYYMEHHGQLKEKNGDVIELKYPL
B2: SHP2 N-SH2, Q06124 (protein)
chain: B1 chain with L14A, V51I
B3: SHP2 N-SH2, Q06124 (protein)
chain: B1 chain with V51I, T54S
B4: SHP2 N-SH2, Q06124 (protein)
chain: B1 chain with V51I, A70G
B5: SHP2 N-SH2, Q06124 (protein)
chain: B1 chain with V51I, V73A
B6: SHP2 N-SH2, Q06124 (protein)
chain: B1 chain with I49V, V51I
B7: SHP2 N-SH2, Q06124 (protein)
chain: B1 chain with V51I, I91V
B8: SHP2 N-SH2, Q06124 (protein)
chain: B1 chain with T37S, V51I
B9: SHP2 N-SH2, Q06124 (protein)
chain: B1 chain with V51I, L60A
B10: SHP2 N-SH2, Q06124 (protein)
chain: B1 chain with V40A, V51I
B11: SHP2 N-SH2, Q06124 (protein)
chain: B1 chain with V51I, L83A
B12: SHP2 N-SH2, Q06124 (protein)
chain: B1 chain with T7S, V51I
B13: SHP2 N-SH2, Q06124 (protein)
chain: B1 chain with V51I, V90A
B14: SHP2 N-SH2, Q06124 (protein)
chain: B1 chain with V20A, V51I
B15: SHP2 N-SH2, Q06124 (protein)
chain: B1 chain with V51I, L69A
B16: SHP2 N-SH2, Q06124 (protein)
chain: B1 chain with V51I, T68S
B17: SHP2 N-SH2, Q06124 (protein)
chain: B1 chain with T47S, V51I
B18: SHP2 N-SH2, Q06124 (protein)
chain: B1 chain with V9A, V51I
B19: SHP2 N-SH2, Q06124 (protein)
chain: B1 chain with T17S, V51I
B20: SHP2 N-SH2, Q06124 (protein)
chain: B1 chain with V51I, A67G
B21: SHP2 N-SH2, Q06124 (protein)
chain: B1 chain with A26G, V51I
B22: SHP2 N-SH2, Q06124 (protein)
chain: B1 chain with I6V, V51I
B23: SHP2 N-SH2, Q06124 (protein)
chain: B1 chain with A45G, V51I

Target: Gab2 (Homo sapiens)
Assay: flow

Binder	Kd [nM]
B1	30
B2	170
B3	120
B4	110
B5	190
B6	150
B7	100
B8	5
B9	860
B10	230
B11	730
B12	80
B13	130
B14	100
B15	210
B16	110
B17	10
B18	160
B19	100
B20	170
B21	70
B22	80
B23	70

From article PMC7345789
